Data set [1] concerns the target T1, RXFP1 (Homo sapiens, UniProt Q9HBX9).
T1 construct: expressed in transfected cells; host or cells: HEK293
T1 sequence (Q9HBX9 1-757): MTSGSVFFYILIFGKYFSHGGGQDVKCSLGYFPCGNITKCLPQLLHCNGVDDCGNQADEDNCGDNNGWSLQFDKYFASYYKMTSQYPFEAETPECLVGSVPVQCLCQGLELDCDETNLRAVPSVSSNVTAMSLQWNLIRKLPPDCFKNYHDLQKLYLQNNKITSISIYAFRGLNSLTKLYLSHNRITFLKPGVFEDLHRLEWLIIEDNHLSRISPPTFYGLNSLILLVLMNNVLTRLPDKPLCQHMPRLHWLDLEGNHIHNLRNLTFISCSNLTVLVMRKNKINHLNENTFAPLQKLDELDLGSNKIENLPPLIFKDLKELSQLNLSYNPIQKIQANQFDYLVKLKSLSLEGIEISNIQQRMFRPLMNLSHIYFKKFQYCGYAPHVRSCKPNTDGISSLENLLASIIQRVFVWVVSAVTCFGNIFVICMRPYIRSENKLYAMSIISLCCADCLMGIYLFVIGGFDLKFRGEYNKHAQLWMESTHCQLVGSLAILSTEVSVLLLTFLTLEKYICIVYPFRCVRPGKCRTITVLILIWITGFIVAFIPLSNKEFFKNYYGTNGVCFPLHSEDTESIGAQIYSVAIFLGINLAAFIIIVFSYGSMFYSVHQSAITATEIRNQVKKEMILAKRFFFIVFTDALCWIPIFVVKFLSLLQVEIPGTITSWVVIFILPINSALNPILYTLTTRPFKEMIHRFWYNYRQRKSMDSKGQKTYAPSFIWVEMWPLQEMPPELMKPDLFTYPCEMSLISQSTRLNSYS
As to the kind of experiment: Serelaxin in vitro activity in presence of bovine serum albumin and human serum #2: cAMP in RXFP1-HEK293 cells. In kind it is cell-based.
Description: In Vitro Activity in Presence of Bovine Serum Albumin and Human Serum #2: Materials: DMEM: F12 media (Gibco, cat #11320) IBMX (Sigma, cat #15879) 384 solid bottom white plates (Greiner bio-one, cat #781945) 20,000 dynamic-2 cAMP kit (Cisbio, cat #62AM4PEC) Adenosine 3′, 5′-cyclic monophosphate (Sigma, cat #A9501) Matrix-plate mate plus (used for adding 5 μl of assays reagents) PBS-Gibco (cat #10010-023) 1M HEPES Gibco (cat-15630-080) 1×HBSS Gibco (cat-14175-095) Assay buffer—1×HBSS+10 mM HEPES Bovine serum albumin cat #A2153 (Sigma-Aldrich) Sigma Aldrich—H4522 (Human serum) Conditions:
10% Human Serum (Sigma aldrich—H4522)
• Serelaxin 10 ul stock dissolved in 190 ul of PBS, final concentration is 40 μM, which are diluted 3× fold by transferring 30 ul to 60 ul of the assay buffer 11 point curve, (A2-A12) 12th is zero. Serelaxin-FA conjugate: Stock is (287.79 uM) i.e 2.61 mg/ml MW is 9069 Daltons • Serelaxin 27.798 ul stock dissolved in 172.2 ul of PBS, final concentration is 40 μM, which are diluted 3× fold by transferring 30 ul to 60 ul of the assay buffer 11 point curve, (A2-A12) 12th is zero. BSA Stock Solution Preparation: For 666.66 uM BSA: Made assay buffer 30 mls by dissolving 1.32 gms of BSA For 600 uM BSA: Made assay buffer 30 ms by dissolving 1.18 gms of BSA No BSA, has only assay buffer Human Serum For 4.44% HS: 1.34 mls in 28.66 mls of assay buffer For 4% HS: 1.2 mls in 28.8 mls of assay buffer For 11.11% HS: 3.33 mls in 26.67 mls of assay buffer For 10% HS: 3 mls in 27 mls of assay buffer Procedure: Day 1: Seed 8,000 cells/well of RXFP1-HEK293 and HEK293 (parental) cells in 10 μl/well volume in basal DMEM:F12 media-on solid bottom plate. Incubate cells overnight at 37° C./5% CO2. Day 2: • 1. Wash cells 2× times with 50 ul of assay buffer and were tapped gently on paper towel to get rid of assay buffer after first and second wash • 2. Cells were pretreated with 15 ul of media with IBMX (666.66 uM) containing respective media (600 uM of BSA, 4% BSA, 10% Human serum and assay buffer alone) for 30 minutes at 37° C. • 3. Serially dilute cpds 3× times, 11 point curve—transferring 15 ul of cpds from previous well to subsequent well with 30 ul of PBS, well 11 is PBS only • 4. Dilute (1:10) in assay buffer from step 3 (i.e is 10 ul to 90 ul of assay buffer) • 5. Dilute again from step 4 (1:10) in respective media (666.66 μM of BSA &4.44% & 11.11% Human serum and assay buffer) final con of the BSA is 600 μM and Human serum is 4 & 10% • 6. (*Incubate the cpds for 1 hr at RT in their respective media, before adding to cells) • 7. […] Read FRET on Envision • 12. cAMP std curves were made in their respective media. cAMP Standard Curve Dilutions:
The initial stock of cAMP standard is 1120000 nM • 1. […] Read on HTRF—Envision Analysis: […]

Data set [2] deals with T1, RXFP1. Nature of the data set: Serelaxin in vitro activity assay #1: cAMP HTRF in RXFP1-HEK293 cells. Format: cell-based. The settings on record: DMEM:F12 media. (Time-resolved FRET reads energy transfer from a long-lived donor to a nearby acceptor.)
Description: Protocol: Day 1: Seeded RXFP1-HEK293/parental HEK293 cells 8k in 10 μl of DMEM: F12 media in solid bottom PDL coated white plates Day 2: Ran assay with the compound Agonist Mode (Overview): • Cells in 10 μl of DMEM:F12 media @37° C. O/N • 5 μl of 2000 μM (4×) of IBMX to the cells for 30 min at 37° C. • 5 μl of 4× compound/Serelaxin to the above for 30 min at 37° C. […]
Read FRET signal—Envision 665 nm/620 nm […]
The nature of data set [3]: In vivo plasma stability of AgRP conjugates, 10 nanomoles per rat iv, AgRP ELISA. The following applies: male Sprague-Dawley rats, 10 nanomoles per rat intravenously. The method, then:
10 nanomoles of conjugate was dissolved in 300 μL of PBS (Phosphate buffered saline) to form Dosing solution. Dosing solution ([…]) was administered intravenously to male Sprague-Dawley rats via lateral tail vein (corresponding to a dose 10 nanomoles per rat). Blood was collected via tail snip at prescribed times after dosing and immediately placed on wet ice. These samples were centrifuged at 4C, with supernatant plasma transferred to a fresh tube for analysis.
Standard curve preparation: The two fatty acid conjugates of examples 27A and 27B and one mature human AgRP peptide were used to make standards. Intermediate stock solutions of each AgRP were prepared by diluting the stock labeled peptides in ELISA sample diluent with casein to 100 ug/ml. For assay, intermediates were diluted to a top standard concentration of 2500 pg/mL and then diluted 2-fold serially to 16 points including a zero dose standard in ELISA sample diluent with bovine serum albumin (BSA). Sample dilution: Plasma samples were diluted 10-fold and then 5-fold serially out to 31,250-fold in ELISA sample diluent with BSA. […] Plates were washed a final time and a chemiluminescent substrate was added to all wells and plates were read immediately on a Spectramx M5 for light output. Data analysis: Raw data was organized and analyzed for basic PK parameters. […]
For orientation: ELISA stands for enzyme-linked immunosorbent assay.

Another data set addresses T2, MC3R (Homo sapiens, UniProt P41968).
T2 construct: expressed in transfected cells; host or cells: HEK293
Nature of the data set: MC3 cAMP assay in HEK293/MC3R cells (antagonist protocol). Format: cell-based. The following applies: HEK293/MC3R stable cell line, against NDP-α-MSH EC80. The protocol: Cells: HEK293/MC3R stable cell line
• I. Aspirate conditioned medium • II. Wash with 2.5 mL of DPBS (Gibco, Cat. No. 14190) • III. Add 2 mL of 0.25% Trypsin-EDTA (Gibco, Cat. No. 25200-056) • IV. Leave the flask for few minutes in incubator, tap the flask a few time to detach cells. • V. Add 10 mL of the complete medium to stop Trypsin-EDTA treatment and mix it well by pipetting softly a few times to re-suspend clumping cells • VI. Transfer 1.5 ml of cells into a new 150 cm flask containing 20 ml of complete media • VII. Transfer the remaining suspension into a 50 mL centrifuge tube • VIII. Spin down at 1200 rpm for 4 mins. Aspirate supernatant • IX. Add 6 mL of the assay buffer to the tube and re-suspend the cells by softly pipetting • X. Transfer 0.5 mL of the suspension into a sample vial for Vi-cell and add another 0.5 ml of PBS. • XI. Count cell number by using a Vi-cell *Record cell density and viability every time • i. Plate cells at 4K/well in 10 ul/well of assay buffer containing IBMX. • ii. Leave the plate in incubator for ˜30 mins before assay is started on suspension cells.
Two step cAMP protocol is followed for cAMP determination.
• I. To 10 ul/well of cells add 5 ul of AgRP prepared at 3× in assay buffer only to antagonist wells. • II. Add 5 ul of buffer to positive control wells (wells that will have NDP-α-MSH). • III. Incubate the plate at 37° C. for ˜20 mins. • IV. […]

Data set [4] relates to high fat diet-induced obese (DIO) mice. Nature of the data set: Glucose-stimulated insulin secretion (GSIS) assay. Format: in vivo. The following applies: single IV dose 45 min before oral glucose 3 g/kg. The protocol: GSIS test was performed as a measurement of in vivo pancreatic beta cell function following recombinant human Prolactin-inducible Protein (hPIP) in high fat diet-induced obese (DIO) mice. Briefly, mice (m=5-7/group) were fasted overnight (5:00 PM-8:00 AM) and on the test day body weight and blood glucose (BG; determined with Embrace glucose meters) which was designated as baseline timepoint. Next, mice were administered with hPIP (native and FA-conjugated PIP; solution in PBS; administered at 4 ml/kg body weight) or a vehicle-control (PBS) once intravenuously (IV). Forty-five min following the hPIP administration, all mice were dosed with oral glucose (3 g/kg dextrose; solution in PBS; administered at 4 ml/kg body weight). Blood glucose was measured immediately before the glucose load (designated as 0 min time point) and at 15 and 30 min post-glucose. Blood samples were collected for plasma isolation and measurement of plasma insulin were carried out at 0, 15 and 30 min post-glucose.

A short description of data set [5]: Pharmacokinetics (PK) assay of hPIP, single IV administration. In kind it is in vivo. The settings on record: DIO mice. The method, then:
Plasma exposure of hPIP were measured in DIO mice following a single IV administration. Briefly, freely-fed DIO mice (n=2) were administered with hPIP (native and FA-conjugated PIP; solution in PBS; administered at 4 ml/kg body weight) once intravenuously (IV). Blood samples were collected and plasma isolated at 0.25, 0.5, 1, 3, 7, 24 and 48 hrs post-dose by and in-house ELISA assay (protocol shown below).

Data on three molecules can be found in patent publication US11752211B2, “Fatty acids and their use in conjugation to biomolecules” (NOVARTIS AG, priority 2014, dated 2023).

Positions of bridges follow the written chain, without caps; N, C: chain ends. No end group written: not given here.

T2 sequence (P41968 whole entry, species assumed): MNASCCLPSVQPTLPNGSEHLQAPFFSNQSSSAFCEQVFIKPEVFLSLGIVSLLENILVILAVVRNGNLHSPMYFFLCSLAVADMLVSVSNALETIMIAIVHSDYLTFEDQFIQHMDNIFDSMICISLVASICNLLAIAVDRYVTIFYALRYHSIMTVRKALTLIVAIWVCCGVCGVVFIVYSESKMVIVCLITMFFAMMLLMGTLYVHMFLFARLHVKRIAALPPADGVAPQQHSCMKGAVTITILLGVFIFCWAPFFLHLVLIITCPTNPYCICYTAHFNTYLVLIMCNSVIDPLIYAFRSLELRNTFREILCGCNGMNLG

As usually defined, the EC50 is the midpoint of the concentration-response curve. Take “Serelaxin: Recombinant 1-chain human relaxin (DSWMEEVIKLCGRELVRAQIAICGMSTWSCFRALSRKTCGVHCCKNALASYLE; Serelaxin Sequence)”: the half-maximal effective concentration (EC50) was found to be 8 nM in the data set with RXFP1 [1] (0% Plasma); 0.3 nM with RXFP1 [1] (4% Plasma); 0.4 nM with RXFP1 [1] (10% Plasma); 0.7 nM with RXFP1 [1] (600 uL BSA); 1.12 nM in the data set with RXFP1 [2].
As for “AgRP: mature human AgRP peptide (SSRRCVRLHESCLGQQVPCCDPCATCYCRFFNAFCYCRKLGTAMNPCSRT; disulfide 12-26, 19-37, 5-20, 23-47, 28-35)”, the “In vivo Plasma stability t½” value in data set [3] turned out to be 4.4 h. Further, in the data set with MC3R, the concentration for a half-maximal effect (EC50) is 12 nM.

B1: Unconjugated PIP: recombinant human Prolactin-inducible Protein (hPIP), native (protein, UniProt P12273 29-146, looked up)
Prolactin-inducible protein: QDNTRKIIIKNFDIPKSVRPNDEVTAVLAVQTELKECMVVKTYLISSIPLQGAFNYKYTACLCDDNPKTFYWDFYTNRTVQIAAVVDVIRELGICPDDAAVIPIKNNRFYTIEILKVE
A word on the Cmax: it is the maximum level reached in the sampled fluid or tissue. A word on the MRT: it is a mean duration of stay, worked out from the concentration-time curve. Take B1: the “Plasma Insulin AUCB (ng/mL*min) compared to the vehicle” value in data set [4] is “+29%”. In data set [5], this molecule had a Cmax of 220 nM and a mean residence time (MRT) of 12.0 h.
